Where no end group is shown, it is not given here. Side-chain parts run from the residue outwards. [ ]: non-standard residue; d: D form. maleimide = maleimide end of mPEG-20 kDa maleimide, which attaches the 20 kDa PEG to the Cys thiol; 1Nal = N[C@@H](Cc1cccc2ccccc12)C(=O)O; Aib = CC(C)(N)C(=O)O
T1: human glucose-dependent insulinotropic polypeptide receptor (hGIP-R) (human, UniProt P48546 22-466)
T1 sequence (looked up): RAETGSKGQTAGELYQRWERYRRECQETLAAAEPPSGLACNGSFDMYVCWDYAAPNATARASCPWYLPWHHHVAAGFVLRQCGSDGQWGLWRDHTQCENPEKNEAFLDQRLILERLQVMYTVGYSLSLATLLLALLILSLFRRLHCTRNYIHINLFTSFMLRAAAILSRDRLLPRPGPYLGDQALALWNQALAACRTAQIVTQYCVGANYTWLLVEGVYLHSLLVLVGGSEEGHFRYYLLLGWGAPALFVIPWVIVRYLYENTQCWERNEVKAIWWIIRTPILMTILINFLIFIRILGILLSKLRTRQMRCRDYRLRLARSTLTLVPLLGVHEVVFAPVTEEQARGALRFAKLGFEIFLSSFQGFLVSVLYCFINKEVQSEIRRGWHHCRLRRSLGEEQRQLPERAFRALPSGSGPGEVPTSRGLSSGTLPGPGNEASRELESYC


Tests used:
[1] = molecular target: T1, human glucose-dependent insulinotropic …; assay: cell-based or functional assay
[2] = molecular target: T2, human glucagon receptor (hGlucR) (human, UniProt P47871 26-477); assay: ratio of Ki values from SPA competition binding assays (Gluc-R against GIP-R and GLP-1-R)
T2 construct: whole, on cells
T2 sequence (P47871 26-477): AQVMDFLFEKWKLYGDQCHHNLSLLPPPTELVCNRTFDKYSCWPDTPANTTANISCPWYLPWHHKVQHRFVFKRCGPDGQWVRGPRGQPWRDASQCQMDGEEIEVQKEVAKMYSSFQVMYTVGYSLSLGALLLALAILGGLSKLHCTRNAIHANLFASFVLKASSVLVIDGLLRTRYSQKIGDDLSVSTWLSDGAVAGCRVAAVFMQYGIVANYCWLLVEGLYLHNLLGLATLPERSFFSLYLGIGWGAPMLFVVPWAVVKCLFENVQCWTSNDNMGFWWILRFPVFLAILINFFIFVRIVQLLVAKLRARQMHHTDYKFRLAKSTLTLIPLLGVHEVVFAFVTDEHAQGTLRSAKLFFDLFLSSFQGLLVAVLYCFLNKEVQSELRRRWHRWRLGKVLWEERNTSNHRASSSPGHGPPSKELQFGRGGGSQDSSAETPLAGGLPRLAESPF

[3] = molecular target: T3, human glucagon-like peptide 1 receptor (hGLP-1-R) (human, UniProt P43220 24-463); assay: SPA competition, I-125 GLP-1 displacement, hGLP-1-R 293HEK membranes
T3 construct: whole, on cells; The cAMP assay uses whole hGLP-1-R-293HEK cells (pcDNA3.1/Neo); also called GLP-1 receptor
Description: The binding buffer contains 25 mM HEPES, pH 7.4, 2.5 mM CaCl₂, 1 mM MgCl₂, 0.1% fatty acid free BSA, 0.003% Tween20, and Roche Complete™ Inhibitors without EDTA. […] The peptide analog is dissolved in PBS and serially diluted in binding buffer. […] Plates are read with a PerkinElmer Life and Analytical Sciences Trilux MicroBeta® scintillation counter after 12 hours of settling time at room temperature.
The IC₅₀ concentration is converted to Ki using the Cheng-Prusoff equation.

[4] = molecular target: T1, human glucose-dependent insulinotropic …; assay: SPA competition, [125I]GIP displacement, hGIP-R CHO-S membranes
Description: The peptides analogs are serially diluted into binding buffer. […] Then, 90 μL membranes (4 μg/well), 50 μL [¹²⁵I] […] Plates are read with a MicroBeta® scintillation counter after 12 hours of settling time at room temperature.

[5] = molecular target: T3, human glucagon-like peptide 1 receptor …; assay: cell-based or functional assay
[6] = molecular target: T3, human glucagon-like peptide 1 receptor …; assay: SPA competition binding assay
[7] = molecular target: T1, human glucose-dependent insulinotropic …; assay: SPA competition binding assay

Binder | EC50 (relative), intracellular cAMP in hGIP-R-CHO-S cells, HTRF [1] [nM] | selectivity ratio versus Gluc-R [2] [times] | Ki [3] [nM] | Ki [4] [nM] | EC50 (relative), intracellular cAMP in hGLP-1-R-293HEK cells, HTRF [5] [nM] | Ki [6] [nM] | Ki [7] [nM]
Y[Aib]EGTFTSDYSI[Aib]LDKIAQRA[1Nal]VQWLIA[Aib]KGKKQEWKHQITQ (not fully specified (C-terminus), Not PEGylated) [Example 1 (Aib2, Aib13, Nal22, Aib29 GIP analog, 42 residues)] | 0.005 | ≥ 100 | 0.096 | 0.044 | 0.036 | < 100 | < 100
Y[Aib]EGTFTSDYSI[Aib]LDKIAQRAFVQWLIA[Aib]KGKKQEWKHQITQC([maleimide-mPEG 20 kDa])C([maleimide-mPEG 20 kDa])-NH2 [Aib2, Aib13, Aib29, Cys43(PEG20K), Cys44(PEG20K)-GIP (Example 3, PEGylated with mPEG-MAL)] | 0.244 | ≥ 100 | 9 | 9.79 | 1.11 | < 100 | < 100
Y[Aib]EGTFTSDYSI[Aib]LDKIAQRAFVQWLIA[Aib]KGKKQEWKHQITQ (not fully specified (C-terminus), Not PEGylated) [Example 2 (Aib2, Aib13, Aib29 GIP analog, 42 residues)] | 0.023 | ≥ 100 | 0.059 | 0.023 | 0.045 | < 100 | < 100
Y[Aib]EGTFTSDYSI[Aib]LDKIAQRA[1Nal]VQWLIA[Aib]KGKKQEWKHQITQC([acetamide-mPEG 20 kDa])C([acetamide-mPEG 20 kDa])-NH2 | 0.207 | ≥ 100 | 6.2 | 9.22 | 0.959 | < 100 | < 100
Y[Aib]EGTFTSDYSI[Aib]LDKIAQRA[1Nal]VQWLIA[Aib]KGKKQEWKHQITQC([maleimide-mPEG 20 kDa])C([maleimide-mPEG 20 kDa])-NH2 (also called Ex 4) [Aib2, Aib13, Nal22, Aib29, Cys43(PEG20K), Cys44(PEG20K)-GIP (Example 4, PEGylated with mPEG-MAL)] | 0.277 | ≥ 100 | 5.27 | 8.23 | 0.844 | < 100 | < 100
